{"source": "paper PMC3250062", "molecular_target": "Gal4p BD fused with murine p53 (pGBKT7-53) (murine)", "assay": "two-hybrid"}
{"substance": "Gal4 AD fused with the SV40 large T-antigen (pGADT7-T) (natural protein)", "values": [{"measurement": "mean GFP fluorescence at 72 hrs", "value": 156}, {"measurement": "mean GFP fluorescence at 96 hrs", "value": 116}, {"measurement": "percent GFP positive cells", "value": 69.9, "unit": "%"}, {"measurement": "percent GFP positive cells at 30-48 hrs", "value": "3 to 5", "unit": "%"}, {"measurement": "percent GFP positive cells at 72 hrs", "value": 23.8, "unit": "%"}, {"measurement": "percent GFP positive cells at 96 hrs", "value": 23.5, "unit": "%"}]}
